Measurements: publication PMC2173821 (The Journal of Cell Biology, 2002)
Substitutions are numbered along the chain they refer to.

B1: His-tagged wild-type human BAF, recombinant (natural protein, UniProt O75531 1-89, looked up)
chain: MTTSQKHRDFVAEPMGEKPVGSLAGIGEVLGKKLEERGFDKAYVVLGQFLVLKKDEDLFREWLKDTCGANAKQSRDCFGCLREWCDAFL
B2: His-tagged human BAF mutant 14A, recombinant (natural protein, UniProt O75531 1-89, looked up)
chain: B1 chain with P14A
B3: His-tagged human BAF mutant 41E, recombinant (natural protein, UniProt O75531 1-89, looked up)
chain: B1 chain with K41E
B4: His-tagged human BAF mutant 53E, recombinant (natural protein, UniProt O75531 1-89, looked up)
chain: B1 chain with K53E
B5: His-tagged human BAF mutant 47E, recombinant (natural protein, UniProt O75531 1-89, looked up)
chain: B1 chain with G47E

Biological target: the molecule itself
Experiment: SEC

Protein | stoichiometry N
B1 | 2
B2 | 2
B3 | 2
B4 | 2
B5 | 2
